Measured values as given in paper PMC10716376, “The assembly of the Mitochondrial Complex I Assembly complex uncovers a redox pathway coordination” (Nature Communications, 2023).
Where a chain is given by its changes, count along the chain named. Names may count otherwise. Blank lines part the entries; values can stand above or below the molecule they belong to.

Key:
VLCAD_(ACAD9) (human) = VLCAD_(ACAD9) (human) (UniProt P49748); assay: mass photometry; ACAD9 (or VLCAD) at 20-50 nM in 25 mM HEPES pH 7.5, 250 mM NaCl, or diluted in 4.8 uM ECSIT solution for complex formation
[1] = target: T1, ACAD9WT (mature ACAD9, residues 38-621) (human, UniProt Q9H845 38-621); assay: dynamic light scattering; 278 K, protein at 1-2 mg/ml; complexes reconstituted at molar ratio 1:1.25; conditions: both partners purified
T1 construct: human ACAD9, mature form, residues 38-621; E. coli codon-optimised synthetic gene; Cloned into pET-21d(+); Plasmid details are in Supplementary Data 1; source: E. coli C43 (DE3), purified (HisTrap, dialysed in SEC buffer)
T1 sequence (looked up): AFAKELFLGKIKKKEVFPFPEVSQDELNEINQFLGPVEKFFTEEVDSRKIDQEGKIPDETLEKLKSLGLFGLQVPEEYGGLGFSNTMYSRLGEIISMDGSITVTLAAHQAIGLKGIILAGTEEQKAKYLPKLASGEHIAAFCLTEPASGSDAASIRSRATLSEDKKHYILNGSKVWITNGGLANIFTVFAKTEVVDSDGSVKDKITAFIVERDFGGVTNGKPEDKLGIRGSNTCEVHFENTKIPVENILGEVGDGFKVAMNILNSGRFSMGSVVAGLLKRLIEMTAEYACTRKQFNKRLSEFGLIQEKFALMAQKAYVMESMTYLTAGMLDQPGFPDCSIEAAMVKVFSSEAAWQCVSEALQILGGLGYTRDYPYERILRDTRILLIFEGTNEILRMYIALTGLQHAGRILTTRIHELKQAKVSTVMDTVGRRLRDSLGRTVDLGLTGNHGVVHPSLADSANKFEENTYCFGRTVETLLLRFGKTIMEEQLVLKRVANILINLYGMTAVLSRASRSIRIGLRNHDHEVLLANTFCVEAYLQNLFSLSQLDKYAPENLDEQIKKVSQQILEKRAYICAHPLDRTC

[2] = target: the molecule itself; assay: mass photometry; ACAD9 (or VLCAD) at 20-50 nM in 25 mM HEPES pH 7.5, 250 mM NaCl, or diluted in 4.8 uM ECSIT solution for complex formation

Molecule: VLCAD_(ACAD9) (from UniProt P49748 72-655) (enzyme)
stoichiometry N (VLCAD_(ACAD9) (human)): 2

B1: ECSIT_(CTER-W324A) (domain or fragment, human, UniProt Q9BQ95 221-431, looked up)
chain: QDPVELAMFGLRHMEPDLSARVTIYQVPLPKDSTGAADPPQPHIVGIQSPDQQAALARHNPARPVFVEGPFSLWLRNKCVYYHILRADLLPPEEREVEETPEEANLYYPMQLDLEYVRSGWDNYEFDINEVEEGPVFAMCMAGAHDQATMAKWIQGLQETNPTLAQIPVVFRLAGSTRELQTSSAGLEEPPLPEDHQEEDDNLQRQQQGQS
notes: human ECSIT, residues 221-431, W324A; also called ECSIT-W324A; ECSIT_(W324A); source: E. coli BL21 Star (DE3), purified (HisTrap, SEC)
binding result [1]: binds

B2: ECSIT_(CTER-Y328A) (domain or fragment, human, UniProt Q9BQ95 221-431, looked up)
chain: B1 chain with A104W, Y108A
notes: human ECSIT, residues 221-431, Y328A; also called ECSIT_(Y328A); source: E. coli BL21 Star (DE3), purified (HisTrap, SEC)
binding result [1]: binds

B6: VLCADWT (very long chain acyl-CoA dehydrogenase, res. 72-655) (enzyme, human, UniProt P49748 72-655, looked up)
chain: SFAVGMFKGQLTTDQVFPYPSVLNEEQTQFLKELVEPVSRFFEEVNDPAKNDALEMVEETTWQGLKELGAFGLQVPSELGGVGLCNTQYARLVEIVGMHDLGVGITLGAHQSIGFKGILLFGTKAQKEKYLPKLASGETVAAFCLTEPSSGSDAASIRTSAVPSPCGKYYTLNGSKLWISNGGLADIFTVFAKTPVTDPATGAVKEKITAFVVERGFGGITHGPPEKKMGIKASNTAEVFFDGVRVPSENVLGEVGSGFKVAMHILNNGRFGMAAALAGTMRGIIAKAVDHATNRTQFGEKIHNFGLIQEKLARMVMLQYVTESMAYMVSANMDQGATDFQIEAAISKIFGSEAAWKVTDECIQIMGGMGFMKEPGVERVLRDLRIFRIFEGTNDILRLFVALQGCMDKGKELSGLGSALKNPFGNAGLLLGEAGKQLRRRAGLGSGLSLSGLVHPELSRSGELAVRALEQFATVVEAKLIKHKKGIVNEQFLLQRLADGAIDLYAMVVVLSRASRSLSEGHPTAQHEKMLCDTWCIEAAARIREGMAALQSDPWQQELYRNFKSISKALVERGGVVTSNPLGF
notes: human very long-chain acyl-CoA dehydrogenase (VLCAD), residues 72-655; plasmid ACADVL from Addgene #38838; VLCAD-related constructs were cloned into pNIC28-BSA; also called ACADVL; source: E. coli Rosetta 2 (DE3), purified (HisTrap, SEC)
stoichiometry N [2]: 2

B7: ACAD9_(S191A) (enzyme, human, UniProt Q9H845 38-621, looked up)
chain: T1 sequence (looked up) with S154A
notes: human ACAD9, residues 38-621, S191A; One FAD per protomer in the cryo-EM structure; source: E. coli C43 (DE3), purified (HisTrap, dialysed in SEC buffer)
stoichiometry N [2]: 2

B8: ACAD9_(VLCAD) (enzyme, human, UniProt Q9H845 38-621, looked up)
chain: T1 sequence (looked up) with L364M, L367M, Y369F, T370M
notes: human ACAD9, residues 38-621, residues 401-407 LGGLGYT replaced by the corresponding VLCAD residues 437-443 MGGMGFM; also called ACAD9 mutated to mimic VLCAD; source: E. coli C43 (DE3), purified (HisTrap, dialysed in SEC buffer)
stoichiometry N [2]: 2

B9: ACAD9_(A184S/SR194TS) (enzyme, human, UniProt Q9H845 38-621, looked up)
chain: T1 sequence (looked up) with A147S, S157T, R158S
notes: human ACAD9, residues 38-621, A184S and SR194TS combined (mimics the VLCAD gatekeeper loop); source: E. coli C43 (DE3), purified (HisTrap, dialysed in SEC buffer)
stoichiometry N [2]: 2

Further lines, results first:

binding result [1]: binds
B3: ECSIT_(CTER-Y328F) (domain or fragment, human, UniProt Q9BQ95 221-431, looked up)
chain: B1 chain with A104W, Y108F
notes: human ECSIT, residues 221-431, Y328F; also called ECSIT_(Y328F); source: E. coli BL21 Star (DE3), purified (HisTrap, SEC)

binding result [1]: binds
B4: ECSIT_(CTER-Y327F) (domain or fragment, human, UniProt Q9BQ95 221-431, looked up)
chain: B1 chain with A104W, Y107F
notes: human ECSIT, residues 221-431, Y327F; also called ECSIT_(Y327F); source: E. coli BL21 Star (DE3), purified (HisTrap, SEC)

binding result [1]: binds
B5: ECSIT_(CTER-Y327A) (domain or fragment, human, UniProt Q9BQ95 221-431, looked up)
chain: B1 chain with A104W, Y107A
notes: human ECSIT, residues 221-431, Y327A; also called ECSIT_(Y327A); source: E. coli BL21 Star (DE3), purified (HisTrap, SEC)
